Assay results taken from patent US20240358767A1, “STEM CELL DIFFERENTIATION AND CHEMICAL COMPOUNDS” (VERTEX PHARMACEUTICALS INCORPORATED, priority 2021, published 2024).
“And” between values parts separate entries of the source, which are not always exact repeats. Equal values may be shown once.

Key:
[1] = system: Stem cells; test: 384-well screen of small molecule compounds for Stage 1 differentiation to Sox17-positive definitive endoderm cells (immunostaining, DAPI); details: 10 ng/mL AA plus test compound, about 8 concentrations; dose-responsive manner
Experimental: (§6) In one experiment, more than 2100 small molecule compounds (“test compounds”) from a small molecule chemogenomic library were tested for their effects on Stage 1 differentiation from stem cells to Sox17-positive definitive endoderm cells. […] Each test compound was tested at about 8 different concentrations. The resulting cell population in each well was then examined by immunostaining and image analysis to determine the percentage of cells expressing Sox17 and/or Oct14 (via immunostaining of Sox17 and Oct 14), and total cell count (via DAPI staining). […] Quantification thresholds correspond to staining signal and were defined as low, normal, or high. Low indicates a low threshold was set for dectection of Sox17+ staining (i.e., easy to detect Sox17+) and high would be only highest expressing Sox17+ cells are detected.

[2] = system: Stem cells
Experimental: as §6

[3] = system: human stem cells; test: Version A differentiation, flow cytometry of Nkx6.1 and Isl1 on day 7 of Stage 6 (S6d7); assay type: cell-based; details: for S6d7 Nkx6.1 + /Isl1+: day 7 of Stage 6
Experimental: (§1) An exemplary base differentiation protocol, Version A, according to the present disclosure, was used for differentiating human stem cells into mature β cells capable of releasing insulin in response to glucose challenge in vitro.
(§2) Version A protocol is a 6-stage stepwise protocol. With Version A protocol, stem cells were treated with reagents in a manner similar to the Version A described in Example 1 of U.S. Patent Publication No. US20220090020A1, which is incorporated by reference herein in its entirety. In some experiments, Version A was modified such that 100 ng/mL Activin A at Stage 1 was replaced with a different concentration of Activin A as described below.
(§3) In one experiment, differentiation of the stem cells was initiated in spinner flasks using Version A protocol, and three different concentrations of Activin A (“AA”), 100 ng/mL (100%), 10 ng/mL (10%), and 5 ng/mL (5%), applied throughout the three days of Stage 1 were tested, while the remaining differentiation steps were kept the same. On QC days, e.g., upon completion of Stage 1 (“S1C”), completion of Stage 3 (“S3C”), or completion of Stage 5 (“S5C”), the cells were examined for their morphology and cell constituents. Specifically, 5 mL of cell cluster suspension solution were taken from the spinner flask, with 1 mL suspension aliquoted into a 24 well plate. Pictures of the cell clusters in the 24-well plate were taken under brightfield microscope. The cell clusters in the remaining 4 mL suspension were dispersed with TrypLE Express (Life Technologies; 12,604,013) at 37° C. for 20 min, fixed with 4% PFA for 20 mins at 4° C., blocked for 1 hour in FACS buffer (5% Donkey Serum and 0.05% Triton-100 in PBS) at room temperature, and stained with various antibodies against cell markers. Stained cells were then measured using an Accuri 6 flow cytometer (BD Biosciences) and analyzed using FlowJo software.
(§4) In one experiment, six different conditions for Stage 1 differentiation were tested: 100% Activin A, 10% Activin A, 10% Activin A plus GSK-690693, 10% Activin A plus BYL719, 10% Activin A plus GSK-690693 and BYL719, or 100% Activin A plus GSK-690693 and BYL719. Characterization of cell morphology and cell constituents were conducted similarly as described in EXAMPLE 1. FIGS. 2A-5E and Table 4 summarize the characterizations of the cells obtained under the six differentiation conditions at different stages.
In another experiment, the effects of the aforementioned six different conditions for Stage 1 differentiation on Stage 6 differentiation were tested under two Stage 6 medium regimens: regimen 1 (Table 5) and regimen 2 (Table 6).

[4] = system: human stem cells; test: Cell cluster morphology under brightfield microscope; assay type: cell-based
Experimental: as §3

[5] = system: human stem cells; test: Version A differentiation, flow cytometry of Pdx1, Cdx2 and Sox2 at completion of Stage 3 (S3C); assay type: cell-based; details: for S3C Pdx1: Runs 3-5, listed as AA
Experimental: as §1, §2, §3
(§5) In one experiment, four different conditions for Stage 1 differentiation were tested: 100% Activin A, 10% Activin A, 10% Activin A plus GSK-690693 (“GSK”), or 10% Activin A plus BYL719 (“BYL”). Characterization of cell morphology and cell constituents were conducted similarly as described in EXAMPLE 1. The experiment was repeated for four times. Table 3 summarizes the quantification of flow cytometry analysis results at S1C, S3C, and S5C, and total viable cell yield at S5C for the four runs. In all the four runs, 0.1 μM […] or 0.04 μM BYL719 was applied for 3 days of Stage 1, except that in the last two runs, Run 4 and Run 5, 0.04 μM of BYL719 was applied for only 2 days (days S1d1 and S1d2).
as §4

[6] = system: human stem cells; test: Version A differentiation, flow cytometry of Nkx6.1 and Isl1 at completion of Stage 5 (S5C); assay type: cell-based
Experimental: as §1, §2, §3, §5, §4

[7] = system: human stem cells; test: Stage 1 differentiation of stem cells (Version A protocol), flow cytometry of Oct4 and Sox17 at completion of Stage 1 (S1C); assay type: cell-based
Experimental: as §1, §2, §3
In another experiment, a dose-response test was conducted to examine the effects of different concentrations of Activin A at Stage 1 on stem cell differentiation. Five different concentrations of Activin A were tested: 100 ng/mL (100%), 20 ng/mL (20%), 10 ng/mL (10%), 5 ng/mL (5%), and 0 ng/mL (0%).
as §5, §4

[8] = system: human stem cells; test: Total viable cell yield at S5C; assay type: cell-based; details: 10% AA (10 ng/mL Activin A) at Stage 1, Runs 4-5, listed as AA
Experimental: as §1, §2, §5

[9] = 10% AA (10 ng/mL Activin A) at Stage 1
[10] = 100% AA (100 ng/mL Activin A) at Stage 1
[11] = Stage 6 Regimen 1, 10% AA (10 ng/mL Activin A) at Stage 1
[12] = Stage 6 Regimen 1, 100% AA (100 ng/mL Activin A) at Stage 1
[13] = Stage 6 Regimen 2, 10% AA (10 ng/mL Activin A) at Stage 1
[14] = Stage 6 Regimen 2, 100% AA (100 ng/mL Activin A) at Stage 1
[15] = 5% Activin A (5 ng/mL) throughout Stage 1
[16] = 10% Activin A (10 ng/mL) throughout Stage 1
[17] = 100% Activin A (100 ng/mL) throughout Stage 1
[18] = reduced concentrations of Activin A (10% or 5%) vs 100%

O=C(Nc1cccc2cccnc12)c1ccc(N2C(=O)[C@@H]3[C@H](C2=O)[C@@H]2C=C[C@H]3C2)cc1 [IWR-1-endo]
signal in Oct 4 channel [1]: decrease
signal in Sox17 channel [1]: increase
nuclear blebbing in the resulting cell population [2]: not to induce

B1: Activin A: growth factor from the TGF-β superfamily; exemplary sequences SEQ ID NO: 1-15 in Table 1 (protein, UniProt P08476 311-426, looked up)
Inhibin beta A chain: GLECDGKVNICCKKQFFVSFKDIGWNDWIIAPSGYHANYCEGECPSHIAGTSGSSLSFHSTVINHYRMRGHSPFANLKSCCVPTKLRPMSMLYYDDGQNIIKKDIQNMIVEECGCS
modifications: Inhibin beta A chain
S6d7 Nkx6.1 + /Isl1+ [3, 9]: 35.4%
S6d7 Nkx6.1 + /Isl1+ [3, 10]: 37.3%
Markers on S6d7 Isl1 + /Nkx6.1+ [3, 11]: 35.4
Markers on S6d7 Isl1 + /Nkx6.1− [3, 11]: 5.34
Markers on S6d7 Isl1 + /Nkx6.1+ [3, 12]: 37.3
Markers on S6d7 Isl1 + /Nkx6.1− [3, 12]: 7.38
Markers on S6d7 Isl1 + /Nkx6.1+ [3, 13]: 34.6
Markers on S6d7 Isl1 + /Nkx6.1− [3, 13]: 5.42
Markers on S6d7 Isl1 + /Nkx6.1+ [3, 14]: 37.8
Markers on S6d7 Isl1 + /Nkx6.1− [3, 14]: 7.16
cell cluster morphology at completion of Stage 5 ([4]; 5% Activin A): altered morphology
cell cluster morphology at completion of Stage 3 ([4]; 10% or 5% Activin A at Stage 1 vs 100% Activin A): altered morphology
cell cluster morphology at completion of Stage 1 ([4]; 10% or 5% Activin A vs 100% Activin A, irregular shapes and rough edge): altered morphology
S3c − Cdx2+/Pdx1+ [5, 15]: 27.0%
S3c− Sox2+/Pdx1+ [5, 15]: 9.76%
S3c − Cdx2+/Pdx1− ([5]; 5% Activin A (5 ng/mL) throughout Stage 1, first line with this head (r7)): 6.22%
S3c − Cdx2+/Pdx1− ([5]; 5% Activin A (5 ng/mL) throughout Stage 1, second line with this head (r9)): 3.63%
S3C Pdx1 + /Cdx2+ [5, 9]: 32.7%
S3C Pdx1 + /Sox2+ [5, 9]: 3.89%
S3C Pdx1 [5, 9]: 56.9 and 93.3 and 75.8
S3c − Cdx2+/Pdx1+ [5, 16]: 32.7%
S3c− Sox2+/Pdx1+ [5, 16]: 3.89%
S3c − Cdx2+/Pdx1− ([5]; 10% Activin A (10 ng/mL) throughout Stage 1, first line with this head (r7)): 1.28%
S3c − Cdx2+/Pdx1− ([5]; 10% Activin A (10 ng/mL) throughout Stage 1, second line with this head (r9)): 1.90%
S3C Pdx1 + /Cdx2+ [5, 10]: 3.21%
S3C Pdx1 + /Sox2+ [5, 10]: 38.8%
S3C Pdx1 [5, 10]: 72.7 and 95.3 and 84.61
S3c − Cdx2+/Pdx1+ [5, 17]: 3.21%
S3c− Sox2+/Pdx1+ [5, 17]: 38.8%
S3c − Cdx2+/Pdx1− ([5]; 100% Activin A (100 ng/mL) throughout Stage 1, first line with this head (r7)): 0.061%
S3c − Cdx2+/Pdx1− ([5]; 100% Activin A (100 ng/mL) throughout Stage 1, second line with this head (r9)): 1.29%
cells expressing Cdx2 at S3C [5, 18]: more
cells expressing Sox2 at S3C [5, 18]: fewer
percentage of Nkx6.1-positive cells at S5C ([6]; 5% Activin A): reduced percentage
S5c − Nkx6.1+/Isl1+ [6, 15]: 25.9%
S5c − Nkx6.1+/Isl1− [6, 15]: 25.3%
S5C Nkx6.1+/Isl1+ [6, 9]: 32.9%
S5C Nkx6.1+/Isl1+ ([6]; 10% AA (10 ng/mL Activin A) at Stage 1, Runs 3-5, listed as AA): 25.2 and 38.7 and 32.9
S5c − Nkx6.1+/Isl1+ [6, 16]: 32.9%
S5c − Nkx6.1+/Isl1− [6, 16]: 49.5%
S5c − Nkx6.1+/Isl1− ([6]; 10% Activin A (10 ng/mL) throughout Stage 1, listed as AA): 49.5%
S5C Nkx6.1+/Isl1+ [6, 10]: 32.6%
S5C Nkx6.1+/Isl1+ ([6]; 100% AA (100 ng/mL Activin A) at Stage 1, Runs 3-5, listed as AA): 31.5 and 36.6 and 32.6
S5c − Nkx6.1+/Isl1+ [6, 17]: 32.6%
S5c − Nkx6.1+/Isl1− [6, 17]: 41.1%
S5c − Nkx6.1+/Isl1− ([6]; 100% Activin A (100 ng/mL) throughout Stage 1, listed as AA): 41.1%
S1c − Oct4−/Sox17+ [7, 15]: 76.4%
S1C Sox17 + /Oct4+ [7, 9]: 3.29%
S1C Sox17+/Oct4− [7, 9]: 87.1%
S1C Sox17+/Oct4− ([7]; 10% AA (10 ng/mL Activin A) at Stage 1, Runs 2-5, listed as AA): 61.6 and 80.5 and 87.1 and 73.8
S1c − Oct4−/Sox17+ [7, 16]: 87.1%
S1C Sox17 + /Oct4+ [7, 10]: 3.41%
S1C Sox17+/Oct4− [7, 10]: 79.1%
S1C Sox17+/Oct4− ([7]; 100% AA (100 ng/mL Activin A) at Stage 1, Runs 2-5, listed as AA): 78.2 and 88.2 and 79.1 and 84.5
S1c − Oct4−/Sox17+ [7, 17]: 79.1%
percentage of Oct4-negative, Sox17-positive cells at S1C ([7]; among 100%, 10% and 5% Activin A): not significant difference
percentage of Sox17−/Oct4+ cells at S1C ([7]; dose-response test, 100% Activin A (100 ng/mL) at Stage 1): under 1%
percentage of Sox17−/Oct4+ cells at S1C ([7]; dose-response test, Activin A reduced from 100% to 20%, 10%, or 5%): did not change significantly
percentage of double negative cells (Sox17-negative, Oct4-negative) at S1C ([7]; dose-response test, reduced Activin A (20%, 10%, and 5%) vs 100%): increase
St5C yield [8]: 2.56e+06 mL⁻¹ and 4.1968e+06 mL⁻¹
